In patent publication US20240026407A1, “MODIFICATION OF SAPONINS” (GLAXOSMITHKLINE BIOLOGICALS SA, priority 2020, published 2024):
Residue numbers refer to the chain shown, from its start. Names and notes keep the numbering of the source. Blank lines part the entries; values can stand above or below the molecule they belong to.

Experiments:
[1] = Example 10: deglucosylation of saponins in crude bark extract (50%) using WT and engineered glucosidases G1 to G5; format: biochemical, Quillaja saponaria; settings: 7 h, 50% CBE, 35 degC; for % Right Peak: starting CBE 26; for % Left Peak: starting CBE 30; for % Middle Peak: starting CBE 44
Method: Lyophilised powders from clarified cell lysate expressing glucosidases (from Example 8 WT glucosidase and engineered glucosidase polypeptides G1 to G5) and rhamnosidases (from Example 9 WT rhamnosidase and engineered rhamnosidase polypeptides R1 to R5) were dissolved in 200 mM sodium acetate aqueous solution at pH 5.8 to prepare the enzyme solutions at 4 fold the final reaction concentration as shown in Tables 19 and 20.
Each glucosidase solution was combined with an equal volume of 200 mM sodium acetate aqueous solution at pH 5.8 and separately with an equal volume of 200 mM sodium acetate aqueous solution at pH 5.8 containing 2 mg/ml rhamnosidase R5. This is a sufficient loading of rhamnosidase to effect complete hydrolysis of the relevant rhamnose moiety within 4 hours.
CBE was adjusted to pH of 6.0 to 6.2 with 2M sodium hydroxide and an equal volume added to the enzyme solution to prepare the reaction mix (i.e. 50% CBE concentration in reaction mix) and the concentration of glucosidase and/or rhamnosidase is shown in Tables 19 and 20. The reaction mix was heated to 35 degC for the time indicated in Tables 19 and 20, after which the reaction was quenched by addition of an equal volume of MeCN containing 2% acetic acid and shaken at room temperature for 10 mins prior to centrifugation (10 min, 4 degC) to remove particulates. Samples were analysed by UV HPLC using method of Experiment 4-4.
The change in composition of the Left, Middle and Right peaks is shown in Tables 19 and 20. The composition changes by the action of the enzymes depending on the presence or absence of the partner enzyme. The extent of reaction is proportional to the enzyme concentration and the reaction time under these conditions. The tables show data for enzyme concentrations and the reaction times providing for equivalent extents of reaction. The improvement resulting from the mutations introduced for each variant is equal to the fold change in enzyme concentration×time (i.e. fold improvement=(enzyme concentration×time) for preceding variant÷(enzyme concentration×time) for later variant). A cumulative fold improvement over the original enzyme variant is calculated by the product of the individual fold improvements.

[2] = Example 8: screening of glucosidase variants for deglycosylation of saponins in crude bark extract (FIOP); format: biochemical, Quillaja saponaria; settings: for Cumulative FIOP (cf WT): estimate; for FIOP: fold improvement over parent
Method: Libraries of genetic variants encoding mutations in the wild type Modestobacter marinus glucosidase (SEQ ID No. 262) were prepared using molecular biology techniques, enzymes were prepared linked to an N-terminally located His-tag. Single monoclonal colonies were grown in 400 ul of expression medium and protein expressed. Cell pellets were lysed in 200 ul of the relevant buffer (Table 16)
Lysate was diluted appropriately in the relevant buffer to allow a lysate loading of the indicated % loading (1% loading corresponds to use of 2 ul original lysate in a 200 ul reaction). In some experiments a rhamnosidase was also present during the screening reaction (and also in controls, negating any impact on results).
Crude bark extract (CBE) obtained by aqueous extraction of Quillaja saponaria and containing at least 2.80 mg/ml QS-21 (by HPLC-UV). The pH of CBE was adjusted to pH 6 by dropwise addition of 2M NaOH with stirring. The relevant concentration of the relevant glucosidase was added. The appropriate relative volume of pH 6 CBE (160 ul (for 80%) or 150 ul (for 75%)) was added to each well of the reaction plate. The reaction plate was sealed and incubated at the relevant temperature with shaking overnight for between 18 and 22 hours.
The reaction plate was quenched by adding 200 uL of MeCN (2% AcOH, 1 mg/mL hexanophenone) to each well of the plates. The quenched reaction plate was re-sealed and incubated at 20 deg C. with shaking for 10 min. The reaction plate was then centrifuged (10 min, 4 degC).
200 uL was transferred from each well of the quenched plate to the corresponding wells of a fresh 96 well plate and sealed. The plate was analysed by UV HPLC with the method below:
A negative control (a lysate not expressing test enzymes) and a positive control (expressing the parent comparator—wild type or previous variant as appropriate). Fold improvement over parent (FIOP) for the glucosidase (shorter method) is calculated as follows:
% right peak=100*right peak area/(right peak area+left peak area)
Average % right peak area is calculated for negative controls (per plate) and subtracted from all wells to give the increase in % right peak for each well above average negative control Average increase in % right peak is calculated for positive controls per plate
FIOP=observed increase in % right peak divided by average positive control increase

[3] = glucosidase 0.78 mg/ml + rhamnosidase R5 0.5 mg/ml
[4] = glucosidase 0.78 mg/ml, no rhamnosidase
[5] = screen temp 20, pH 6, lysate loading 2.50%, CBE loading 80%, 100 mM Potassium phosphate, Rham Present
[6] = glucosidase 6.25 mg/ml + rhamnosidase R5 0.5 mg/ml
[7] = glucosidase 6.25 mg/ml, no rhamnosidase
[8] = screen temp 35, pH 6, lysate loading 20%, CBE loading 80%, 100 mM Potassium phosphate, Rham None
[9] = glucosidase 0.39 mg/ml + rhamnosidase R5 0.5 mg/ml
[10] = glucosidase 0.39 mg/ml, no rhamnosidase
[11] = screen temp 35, pH 6, lysate loading 0.28%, CBE loading 75%, 100 mM Sodium acetate, Rham Present

- Cumulative Fold improvement in primary enzyme loading × time [1, 3]: 64
- Fold improvement in primary enzyme loading × time [1, 3]: 2.0
- Cumulative Fold improvement in primary enzyme loading × time [1, 4]: 64
- Fold improvement in primary enzyme loading × time [1, 4]: 2.0
B1: Variant G3: engineered glucosidase polypeptide, variant of Modestobacter marinus glucosidase SEQ ID No. 262 (protein)
chain: MNPASSTRTDTMTDTTARTDSRLTDALAALSLEQKVQLLTGRDYWNTWPIEEIGLRRILVSDGPSGVRGEVWDERDPSLNLPSATALASAWDPDIARRYGAAAAVEARRKGVDVVLGPTINLHRSPLGGRHFEAFSEDPVLTAELAAAYVTGVQDNGVGATPKHYVANDFETDRFTVDVRADERTLRELYLLAFEKAVTEARAWLVMSAYNGINGATATENDLLETPLNSEWGFDGVVVSDWTAVRSLESARSSQDLVMPGPVGPWGDALVEAVRTGAIDESVVDRKVLRILTLAQRVGALEGSPAIDPVWVEDGVALAREAAVEGTVLLENRDELPWDATSLRKVAVIGNNAAAAMTQGGGSANVLPEYTVSPLDGVRAALPDAEVSYSLGAVVQDGLVELPLAELTNPVTGGPGLRARFLTADGAELFGEDRRKSVLVYQGGDAPIAAAATYELTARWTPTESQTVRLGFFCFGAAQLYVDGELLVESDLQPSGTDLGAAFMNPLTASAEVELVAGKPVDVRLVHDLSAKEGFAAHALFLQLGTEPAEVDEDALIAEAAEAAEAADVVLVVVGTNSIVESEGYDRESLSLPGRQDDLVRAVVAANPRTVVLVNAGAPVLLPWRDDVAALLLGWFGGQEFGNAVADVLLGVAEPGGRLPTTWPAAEADVPVLSCTPVDGVVEYTEGIHIGYRAWLRSGATPAYWFGSGQGYTCVELTGVEAPSRARPGEIVTVSVEVANRGERDGKQVVQVYAEKPDSTVDRPVRWLVGSAPVRVPAGQTAQVEVAVPTRYLAHWAGGWQYEPGVYRLRVGTTAVELPLETTLEVSA
modifications: Seq ID No. 262 with mutations T365N, R357M, A473F, L474C, I475F, F44Y, F442Q
- % change in Left Peak [1, 3]: −31%
- % change in Middle Peak [1, 3]: −79%
- % change in Right Peak [1, 3]: 270%
- % Right Peak [1, 3]: 70%
- % Left Peak [1, 3]: 21%
- % Middle Peak [1, 3]: 9%
- % change in Left Peak [1, 4]: −19%
- % change in Middle Peak [1, 4]: −50%
- % change in Right Peak [1, 4]: 206%
- % Right Peak [1, 4]: 53%
- % Left Peak [1, 4]: 24%
- % Middle Peak [1, 4]: 22%
- Cumulative FIOP (cf WT) [2, 5]: 125
- FIOP [2, 5]: 2.5

- Cumulative Fold improvement in primary enzyme loading × time [1, 6]: 8
- Fold improvement in primary enzyme loading × time [1, 6]: 8.0
- Cumulative Fold improvement in primary enzyme loading × time [1, 7]: 8
- Fold improvement in primary enzyme loading × time [1, 7]: 8.0
B2: Variant G1: engineered glucosidase polypeptide, variant of Modestobacter marinus glucosidase SEQ ID No. 262 (protein)
chain: B1 chain with Y44F, M357R, Q442F, F473A, C474L, F475I
modifications: Seq ID No. 262 with mutation T365N
- % change in Left Peak [1, 6]: −39%
- % change in Middle Peak [1, 6]: −64%
- % change in Right Peak [1, 6]: 253%
- % Right Peak [1, 6]: 66%
- % Left Peak [1, 6]: 18%
- % Middle Peak [1, 6]: 16%
- % change in Left Peak [1, 7]: −8%
- % change in Middle Peak [1, 7]: −59%
- % change in Right Peak [1, 7]: 209%
- % Right Peak [1, 7]: 54%
- % Left Peak [1, 7]: 28%
- % Middle Peak [1, 7]: 18%
- Cumulative FIOP (cf WT) [2, 8]: 5
- FIOP [2, 8]: 5

- Cumulative Fold improvement in primary enzyme loading × time [1, 9]: 128
- Fold improvement in primary enzyme loading × time [1, 9]: 2.0
- Cumulative Fold improvement in primary enzyme loading × time [1, 10]: 128
- Fold improvement in primary enzyme loading × time [1, 10]: 2.0
B3: Variant G4: engineered glucosidase polypeptide, variant of Modestobacter marinus glucosidase SEQ ID No. 262 (protein)
chain: B1 chain with V263L, F541I
modifications: Seq ID No. 262 with mutations T365N, R357M, A473F, L474C, I475F, F44Y, F442Q, V263L, F541I
- % change in Left Peak [1, 9]: −28%
- % change in Middle Peak [1, 9]: −79%
- % change in Right Peak [1, 9]: 267%
- % Right Peak [1, 9]: 69%
- % Left Peak [1, 9]: 22%
- % Middle Peak [1, 9]: 9%
- % change in Left Peak [1, 10]: −22%
- % change in Middle Peak [1, 10]: −49%
- % change in Right Peak [1, 10]: 208%
- % Right Peak [1, 10]: 54%
- % Left Peak [1, 10]: 23%
- % Middle Peak [1, 10]: 23%
- Cumulative FIOP (cf WT) [2, 11]: 300
- FIOP [2, 11]: 2.4
